# From publication PMC8693174
# Legend:
# Test in all cases: potentiometry
# Settings in all cases: 25 °C; I = 0.1 M (KNO3); samples in 96 mM KNO3/4 mM HNO3; none (96 mM KNO3/4 mM HNO3); Free peptide, no metal, under argon
# [1] = target: Asp3 (position 3, ---RHDSG---)
# [2] = target: Nterm1 (position 1, -----RHDSG-)
# [3] = target: His2 (position 2, ----RHDSG--)
protein,measurement,setting,value
"RHDSG [Amyloid-beta 5-9 peptide (Abeta5-9), Arg-His-Asp-Ser-Gly-NH2 (Homo sapiens (synthetic peptide))]",pKa,[1],3.17
same,pKa,[2],7.37
same,pKa,[3],6.13
